# Biological target: human LDL (low-density lipoprotein) (human)
# Test: SPR; LDL amine-coupled to a CM5 chip (Biacore T100); LDLR^ecto (5-388 nM) or ALK1^ecto (0.19-15.3 uM) as analytes, single cycle kinetics; 25 °C; 25 mM HEPES pH 7.4, 150 mM NaCl, 0.1 mM CaCl2; 1:1 binding model; apparent
# Sequence of ALK1^ecto-Fc (P37023 22-118): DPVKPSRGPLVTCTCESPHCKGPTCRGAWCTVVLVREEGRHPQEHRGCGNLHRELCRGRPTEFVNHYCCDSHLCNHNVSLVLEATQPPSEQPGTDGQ
row,Kd [nM],Substance
1,7,LDLR^ecto-(His)6 (from UniProt P01130 22-788) (domain or fragment)
2,200,ALK1^ecto-Fc (from UniProt P37023 22-118) (Fc fusion)

# From article PMC5121336
